Measurements from the supplement of paper PMC10567573.

B1: IKZF1 (parent)
chain: RDPFECNMCGYHSQDRYEFSSHIT

Variants of: B1
Test: protein stability index of a GFP-peptide fusion (GPS, HEK-293T) (PSI 1-6); higher = more stable
Conditions: c terminus: a fixed tail appended
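Further: lentivirally expressed fusions sorted by FACS into six bins by GFP to DsRed ratio, PSI derived from sequencing read proportions per bin multiplied by bin number.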

Going from RDPFECNMCGYHSQDRYMFSSHIT [E18M] to RDPFECMMCGYHSQDRYEFSSHIT [N7M], the protein stability index rises from 1.54 to 1.97.

Compared with RDPFECNWCGYHSQDRYEFSSHIT [M8W], RDPFEENMCGYHSQDRYEFSSHIT [C6E] is higher in protein stability index: 2.34 for the first, 3.58 for the second.

First: RDPFECNMCGYHSQDRYEFSSVIT [H22V]
Second: RDPFECNMCGYHSQDRYEFSSHST [I23S]
The protein stability index of the first is lower: 1.75 for the first, 2.5 for the second.

Going from RDPFECNMCGFHSQDRYEFSSHIT [Y11F] to RDPFGCNMCGYHSQDRYEFSSHIT [E5G], the protein stability index falls from 2.01 to 1.82.

Going from RDPIECNMCGYHSQDRYEFSSHIT [F4I] to RDPFECIMCGYHSQDRYEFSSHIT [N7I], the protein stability index rises from 1.89 to 2.05.

First: RDPFECNMCGYHRQDRYEFSSHIT [S13R]
Second: RDPFECNMCGYHSQDRYEQSSHIT [F19Q]
The protein stability index of the first is lower: 2.04 for the first, 3.14 for the second.

Compared with RDPFECNMCGYASQDRYEFSSHIT [H12A], RDPFPCNMCGYHSQDRYEFSSHIT [E5P] is lower in protein stability index: 2.6 for the first, 1.91 for the second.

Going from RDPFECNMCGYHSQDRYEPSSHIT [F19P] to REPFECNMCGYHSQDRYEFSSHIT [D2E], the protein stability index falls from 3 to 2.18.

Going from RDPFECNMCGYHSQRRYEFSSHIT [D15R] to RDPFECNMCGYHSQDRYEFSSMIT [H22M], the protein stability index falls from 2.14 to 1.79.

Compared with RDPFECNMCGYHSQARYEFSSHIT [D15A], RDPFQCNMCGYHSQDRYEFSSHIT [E5Q] is higher in protein stability index: 1.98 for the first, 2.06 for the second.

Compared with RDPFECNMCGYSSQDRYEFSSHIT [H12S], RDPFECRMCGYHSQDRYEFSSHIT [N7R] is lower in protein stability index: 2.06 for the first, 1.49 for the second.

First: RDPMECNMCGYHSQDRYEFSSHIT [F4M]
Second: RDPFECSMCGYHSQDRYEFSSHIT [N7S]
The protein stability index of the first is higher: 2.4 for the first, 1.72 for the second.

Going from RDPFECNMCGYHSQDRYIFSSHIT [E18I] to RDPFECNMCGNHSQDRYEFSSHIT [Y11N], the protein stability index rises from 2.18 to 2.71.

Compared with RDPFECNMCGYHSQDRYEFSGHIT [S21G], RDPFECNMCGEHSQDRYEFSSHIT [Y11E] is higher in protein stability index: 2.38 for the first, 3.29 for the second.

Going from NDPFECNMCGYHSQDRYEFSSHIT [R1N] to RDPFECNMCGYHCQDRYEFSSHIT [S13C], the protein stability index falls from 2.44 to 1.74.

Compared with RDPFECNMCGYHSQDRYEFFSHIT [S20F], RDPFECNMCGYHSQDRWEFSSHIT [Y17W] is higher in protein stability index: 1.59 for the first, 2.54 for the second.

First: RDPFECNMCYYHSQDRYEFSSHIT [G10Y]
Second: RDPFECNMCVYHSQDRYEFSSHIT [G10V]
The protein stability index of the first is higher: 2.66 for the first, 2.07 for the second.

Compared with RDPFACNMCGYHSQDRYEFSSHIT [E5A], RDPFECNMCGYHSSDRYEFSSHIT [Q14S] is higher in protein stability index: 2.13 for the first, 2.43 for the second.

Compared with RDPFECNMCGYHWQDRYEFSSHIT [S13W], RDPFECNMCGYHSQDRYELSSHIT [F19L] is lower in protein stability index: 2.28 for the first, 1.61 for the second.

First: RDPFECNMCGYHTQDRYEFSSHIT [S13T]
Second: RDPFECQMCGYHSQDRYEFSSHIT [N7Q]
The protein stability index of the first is higher: 2.1 for the first, 2.01 for the second.

First: RDPFECNECGYHSQDRYEFSSHIT [M8E]
Second: RDPFECNMCGYHSQDRYEFSSSIT [H22S]
The protein stability index of the first is higher: 3.08 for the first, 1.88 for the second.

First: RDPFECNMCGYHSQDRYEFISHIT [S20I]
Second: RDPFECNMVGYHSQDRYEFSSHIT [C9V]
The protein stability index of the first is lower: 2.06 for the first, 3.06 for the second.

Going from RDPFFCNMCGYHSQDRYEFSSHIT [E5F] to RDPFECNMCGYHSQIRYEFSSHIT [D15I], the protein stability index falls from 1.78 to 1.56.

First: RDPFECGMCGYHSQDRYEFSSHIT [N7G]
Second: RFPFECNMCGYHSQDRYEFSSHIT [D2F]
The protein stability index of the first is higher: 2.25 for the first, 1.57 for the second.

First: RDPFECNMCGYPSQDRYEFSSHIT [H12P]
Second: RSPFECNMCGYHSQDRYEFSSHIT [D2S]
The protein stability index of the first is higher: 2.49 for the first, 1.73 for the second.

Compared with ADPFECNMCGYHSQDRYEFSSHIT [R1A], RDPFECNMCGYHSQDRYEFSSHIH [T24H] is lower in protein stability index: 2.63 for the first, 2.38 for the second.

First: RDPFECNMCGYHSQDRYEFYSHIT [S20Y]
Second: RDPFESNMCGYHSQDRYEFSSHIT [C6S]
The protein stability index of the first is lower: 1.71 for the first, 2.5 for the second.

Compared with RDPFECNMCAYHSQDRYEFSSHIT [G10A], RDPVECNMCGYHSQDRYEFSSHIT [F4V] is higher in protein stability index: 2.16 for the first, 2.2 for the second.

Going from RDPFECNMCGYHSQDRYEFASHIT [S20A] to RDPFECNMCGYHSQDRQEFSSHIT [Y17Q], the protein stability index falls from 2.13 to 2.1.

Going from RDPFECNMCGYHSQDKYEFSSHIT [R16K] to RDPFECNMCGYCSQDRYEFSSHIT [H12C], the protein stability index falls from 2.01 to 1.82.

Going from RIPFECNMCGYHSQDRYEFSSHIT [D2I] to RDPFECNMCGYHSDDRYEFSSHIT [Q14D], the protein stability index falls from 2.2 to 2.09.

First: RDPFECNMCGYHSQDRKEFSSHIT [Y17K]
Second: RDPFECNYCGYHSQDRYEFSSHIT [M8Y]
The protein stability index of the first is lower: 2.21 for the first, 2.4 for the second.

First: RDPFECNMCGKHSQDRYEFSSHIT [Y11K]
Second: RDPFECNMCGYHSNDRYEFSSHIT [Q14N]
The protein stability index of the first is higher: 3.13 for the first, 2.42 for the second.

Compared with RDPFECNMCGYHSQDRYEFQSHIT [S20Q], RDPFECNMCGYHSQCRYEFSSHIT [D15C] is higher in protein stability index: 1.94 for the first, 2.32 for the second.

Compared with RDPFECNMCGYHSQDRYEFNSHIT [S20N], RDPFECNMCGYHIQDRYEFSSHIT [S13I] is lower in protein stability index: 2.08 for the first, 1.91 for the second.

Going from GDPFECNMCGYHSQDRYEFSSHIT [R1G] to RDPFECNMCGYHSQDRYEFSSHIW [T24W], the protein stability index rises from 2.49 to 2.71.

Compared with RDPFECVMCGYHSQDRYEFSSHIT [N7V], RDPFECNMCGYHSQDRYEFSSHIA [T24A] is higher in protein stability index: 2.04 for the first, 2.42 for the second.

Compared with RDPFECNMCGYHSQDRMEFSSHIT [Y17M], RDPFECNMCGYHSQKRYEFSSHIT [D15K] is lower in protein stability index: 2.16 for the first, 1.65 for the second.

Going from RDPFRCNMCGYHSQDRYEFSSHIT [E5R] to RDPFECNMCGYHSQDLYEFSSHIT [R16L], the protein stability index rises from 1.92 to 2.12.

First: RDHFECNMCGYHSQDRYEFSSHIT [P3H]
Second: RDPFECNMCNYHSQDRYEFSSHIT [G10N]
The protein stability index of the first is higher: 2.59 for the first, 2.4 for the second.

First: VDPFECNMCGYHSQDRYEFSSHIT [R1V]
Second: RDPFECNMCGYHSQDRYEFSDHIT [S21D]
The protein stability index of the first is higher: 2.25 for the first, 2.17 for the second.

Compared with RDPFECNMCGYHSQDRYEVSSHIT [F19V], RDPFETNMCGYHSQDRYEFSSHIT [C6T] is higher in protein stability index: 2.08 for the first, 3.21 for the second.

Compared with RDPFECNMWGYHSQDRYEFSSHIT [C9W], RDPFWCNMCGYHSQDRYEFSSHIT [E5W] is lower in protein stability index: 2.36 for the first, 1.59 for the second.

Going from RDPFECFMCGYHSQDRYEFSSHIT [N7F] to RDPFECNMCGYHSQDRYEFSSHKT [I23K], the protein stability index rises from 1.33 to 2.75.

Compared with RDPFECNMCGYHSQDRYEFSFHIT [S21F], RCPFECNMCGYHSQDRYEFSSHIT [D2C] is higher in protein stability index: 2.06 for the first, 2.19 for the second.

Going from RDPFECNMLGYHSQDRYEFSSHIT [C9L] to RDPFECNMCGYHSQDRYEFSSHVT [I23V], the protein stability index falls from 3.05 to 2.43.

Compared with RDPFECNMCGYHSQDRYEFSPHIT [S21P], RDPFECNMRGYHSQDRYEFSSHIT [C9R] is higher in protein stability index: 2.68 for the first, 3.24 for the second.
